Experimental data published in PMC8596017, “Evolutionary mode for the functional preservation of fast-evolving Drosophila telomere capping proteins” (Open Biology, 2021).

T1: Verrocchio (Ver), wild type, Flag-tagged (D. melanogaster, UniProt Q9VTZ2 1-214)
T1 construct: Verrocchio (Ver), Terminin subunit of D. melanogaster; also called wild-type Ver; source: Arctic express cells (DE3), co-expressed with Moi-HA from a bicistronic pET vector; cell lysate, heparin-sepharose fractions, anti-FLAG M2 eluate; not shown: Flag, N-terminal, kept
T1 sequence (looked up): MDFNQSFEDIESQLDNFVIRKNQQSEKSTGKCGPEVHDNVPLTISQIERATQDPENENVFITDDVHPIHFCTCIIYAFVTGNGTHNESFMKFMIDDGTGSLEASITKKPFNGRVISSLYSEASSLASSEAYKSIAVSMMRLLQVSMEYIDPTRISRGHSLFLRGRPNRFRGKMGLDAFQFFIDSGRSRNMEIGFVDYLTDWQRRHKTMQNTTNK


Legend:
[1] = test system: Ver (wild type);Moi (Drosophila melanogaster;Drosophila melanogaster); assay: pull-down; conditions: reference; BLI and EMSA: PBS (137 mM NaCl, 2.7 mM KCl, 10 mM Na2HPO4, 1.8 mM KH2PO4) + 0.05% Tween 20, EMSA 15 min at room temperature, 20 fmol ssDNA; pull-down: 4 C …
[2] = test system: Ver (wild type);Moi (Drosophila melanogaster;Drosophila melanogaster); assay: BLI; conditions: PBS + 0.05% Tween 20, BLI and EMSA: PBS (137 mM NaCl, 2.7 mM KCl, 10 mM Na2HPO4, 1.8 mM KH2PO4) + 0.05% Tween 20, EMSA 15 min at room temperature, 20 fmol ssDNA, pull-down: 4 C …
[3] = target: T1, Verrocchio (Ver), wild type, Flag-tagged; assay: co-IP; Flag immune-affinity purification: heparin-sepharose fractions loaded on anti-FLAG M2 affinity matrix, washed with buffer I (25 mM Tris HCl pH 7.5, 100 mM NaCl, 1 mM CaCl2, 1 mM MgCl2) or PBS, eluted with 3× Flag peptide; conditions: partners not purified
[4] = target: M1-Ver (Ver with the Group 1 uncharacterized helices deleted), Flag-tagged (D. melanogaster) (UniProt Q9VTZ2); assay: as above
[5] = target: M3-Ver (Ver with the putative DNA binding surface, Group 3, partially deleted), Flag-tagged (D. melanogaster) (UniProt Q9VTZ2); assay: as above

stoichiometry N [3] | stoichiometry N [4] | stoichiometry N [5] | Molecule | binding signal (fraction of Moi eluted from ssDNA) [1] | Kd ([2]; Kd1, heterogeneous ligand (2:1) model) [nM] | Kd ([2]; Kd2, heterogeneous ligand (2:1) model) [nM]
– | – | – | 80 nt ssDNA | 1 | 129 | 1570
~1 | 1 | 1 | Modigliani (Moi), HA-tagged at the C-terminus (natural protein, D. melanogaster, UniProt B7Z0L8 1-178, looked up, DTL/Modigliani (Moi), Terminin subunit of D. melanogaster; also called DTL; source: Arctic express cells (DE3), co-expressed with Ver from a bicistronic pET vector; cell lysate, heparin-sepharose fractions, anti-FLAG M2 eluate; not shown: HA, C-terminal, kept) MSLVPEASTSRAPKYCYFFKTLLVEELELETSYHNLHYGQCALIGRLAFKANQYRLENVRVKCLPKKYSLGEGTVSLLILGLTHDKVVENRVSTGRYCIVRGEVVLHNVQHPKGAKLTAGGVYDKINSLSNDPLAQKQYLSALLATYRPAIDLWYIQVIDRAEDLLTRRLEMRSLIEK | – | – | –
